Measurements published in the Human Domainome abundance scans (Beltran et al. 2025).

B1: Transcriptional regulator ERG, residues 117 to 197; numbered along this chain, P11308 (parent)
chain: NMTTNERRVIVPADPTLWSTDHVRQWLEWAVKEYGLPDVNILLFQNIDGKELCKMTKDDFQRLTPSYNADILLSHLHYLRE
B2: Steroid hormone receptor ERR2, residues 100 to 176; numbered along this chain, O95718 (parent)
chain: KRLCLVCGDIASGYHYGVASCEACKAFFKRTIQGNIEYSCPATNECEITKRRRKSCQACRFMKCLKVGMLKEGVRLD

Variants of: B1
Assay: abundance fitness (aPCA) (normalised: wild type 0, dead -1); higher = more abundant; growth selection in yeast, the domain comes from the species named
Conditions: Homo sapiens

Abundance fitness: each site, then its substitutions
E6: D -0.085; I 0.007; S -0.107; V -0.142; Y -0.089; H 0.004; C -0.242; Q 0.002; L 0.006; N 0.017; R -0.088; G 0.031; T -0.017; M 0.024; A -0.139; F 0.002; W 0.037; P 0.033
N5: V -0.004; A -0.06; K 0.001; W -0.003; T -0.071; Y -0.105; M 0.085; R -0.044; H -0.071; F 0.075; E 0.064; S -0.119; C -0.01; D 0.079; I 0.036; P -0.092; G -0.01
N1: D -0.071; M -0.087; T 0.002; H -0.279; F 0.012; K -0.114; Q -0.011; A -0.144; Y 0.029; R -0.054; G -0.154; W -0.168; S -0.097; E -0.038; C -0.057; I 0.007
R8: S -0.117; E 0.09; D 0.116; G -0.207; L -0.29; V -0.478; C -0.112; H -0.098; P -0.137; W -0.881; N 0.028; Y -0.496; I -0.323; Q -0.011; K 0.104; F -0.076; T -0.022; A -0.084; M -0.263
R7: W -0.053; E 0.06; K 0.018; C -0.12; S -0.047; P 0.049; N -0.09; T 0.021; Y -0.127; M 0.044; L 0.087; D 0.037; G -0.003; I -0.208; V -0.045; H -0.115; A 0; Q 0.016
T3: K -0.109; I -0.014; M 0.029; P -0.162; A -0.043; H -0.127; L -0.094; S 0.055; R -0.05; D -0.05; G -0.022; C -0.088; E -0.045; N -0.025; Q -0.043; F -0.007; Y -0.141; V -0.08
T4: A -0.099; P -0.056; M 0.146; L -0.025; C -0.018; N -0.028; G -0.042; H -0.151; Y -0.04; Q -0.126; R -0.149; W 0.01; D 0.04; I 0.054; E 0.035; F 0.079; K -0.043
V9: Q 0.243; Y -0.062; R 0.113; S 0.137; W 0.038; C 0.046; L 0.096; H 0.034; I -0.034; N 0.099; T 0.054; P 0.292; F 0.075; K 0.16; D 0.269; M 0.132; E 0.207; A 0.12
I10: D 0.328; F -0.06; C -0.026; E 0.21; A 0.124
M2: S -0.105; N -0.028; C -0.166; F -0.048; V -0.417; D -0.195; R -0.049; W -0.17; P 0.004; G -0.337; H -0.046; Q 0.037; T -0.033; Y -0.139; L -0.042; I -0.143; E -0.213; A -0.296; K -0.144

Variants of: B2
Assay: as above
Conditions: Homo sapiens

Abundance fitness of substitutions, site by site:
G73: D 0.133; Q 0.046; A 0.08; C -0.126; F -0.369; R -0.056; P 0.019; S -0.031; W -0.031; E 0.118; K 0.017; V -0.132; I -0.441; L -0.016; T 0.002; M 0.007; Y -0.6; H -0.104; N -0.107
M69: E -0.57; H -1.06; Y -0.259; L -0.431; K -0.931; W -0.231; V -0.749; A -0.639; C -0.937; D -0.694; F 0.058; N -0.642; I -0.581; T -0.54; P -0.782; Q -0.752; G -0.703; R -0.729
E72: N 0.02; Y -0.501; I -0.299; S -0.051; Q -0.16; C -0.262; F -0.556; R -0.355; W -0.503; T -0.104; L -0.424; G -0.122; A -0.088; H -0.368; P -0.029; M -0.448; D -0.012
V74: M -0.13; D 0.03; A 0.126; K -0.124; T -0.129; R -0.191; S -0.017; Y -0.319; P -0.025; C -0.501; G -0.089; L -0.004; E 0.08; N -0.036; F -0.171; I -0.026
L76: K -0.028; S -0.07; E 0.146; Q -0.007; G 0.055; W -0.095; N 0.056; Y -0.001; C -0.099; A 0.124; T -0.024; M -0.001; D 0.08; V 0.058; I -0.037; P -0.079
R75: Y -0.102; W -0.1; T 0.062; F -0.014; H -0.165; K 0.075; V 0.002; A 0.035; P 0.031; C 0.117; D 0.04; I -0.051; E 0.076; N -0.074; Q 0.153
K71: T -0.106; P -0.19; G -0.166; Y -0.222; Q -0.153; N -0.147; M -0.063; S -0.025; W -0.242; C -0.006; E -0.07; F -0.305; I -0.047; L -0.148; V -0.02; D -0.102; A -0.109
D77: Q 0.26; R -0.11; V -0.111; N -0.166; Y -0.29; P 0.171; H 0.082; C -0.348; S -0.059; I -0.572; F -0.363; M -0.35; E -0.096; L -0.168; G -0.194; A -0.131; T -0.04; W -0.287
G68: T -0.849; M -0.851; P -0.894; K -0.454; S -0.954; L -0.749; N -0.753; H -0.657; Q -0.944; D -0.267; R -0.903; A -0.777; C -0.808; W -0.806
L70: D 0.069; N 0.032; P -0.044; H -0.158; K 0.13; Y -0.646; V 0.107; R 0.014; S 0.083; T 0.011; A -0.004; E 0.101; M -0.03; F -0.066; Q -0.035; G -0.084; W -0.032; I 0.034; C -0.098
